Patent US20160160263

Legend:
[1] = tested on: SNPYK-Y (SEQ ID NO: 21), MMP9 selective substrate
[2] = tested on: TIAH/LH, MMP2 selective substrate
[3] = tested on: SNPYG-Y (SEQ ID NO: 23), MMP9 selective substrate
[4] = tested on: RS-Q-G-(homoF)-YLY (SEQ ID NO: 71)
[5] = tested on: T1, YGRAAA (SEQ ID NO: 17), uPA selective substrate
T1 sequence: YGRAAA

Sequence of MMP-9 (chain, as listed by the source): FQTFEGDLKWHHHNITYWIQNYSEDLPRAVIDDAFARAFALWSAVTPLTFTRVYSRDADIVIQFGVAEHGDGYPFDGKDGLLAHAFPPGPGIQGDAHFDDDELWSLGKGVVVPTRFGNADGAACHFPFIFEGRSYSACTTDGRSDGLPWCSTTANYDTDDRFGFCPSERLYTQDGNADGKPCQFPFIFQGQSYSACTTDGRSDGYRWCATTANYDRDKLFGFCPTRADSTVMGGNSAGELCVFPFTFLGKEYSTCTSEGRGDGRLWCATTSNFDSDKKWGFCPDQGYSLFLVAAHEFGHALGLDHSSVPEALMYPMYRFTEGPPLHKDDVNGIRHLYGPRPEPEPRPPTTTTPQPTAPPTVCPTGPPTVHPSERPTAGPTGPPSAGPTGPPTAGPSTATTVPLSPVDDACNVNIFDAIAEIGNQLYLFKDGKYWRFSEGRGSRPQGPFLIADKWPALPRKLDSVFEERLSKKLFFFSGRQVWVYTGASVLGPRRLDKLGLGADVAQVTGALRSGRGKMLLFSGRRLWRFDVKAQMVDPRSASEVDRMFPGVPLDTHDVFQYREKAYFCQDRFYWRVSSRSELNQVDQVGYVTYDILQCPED

With MMP-9 the “cleavage of ACPP substrate by protease (FAM/Cy5 ratiometric RACPP)” value [1] was “MMP9 selective substrates”, the “cleavage of ACPP substrate by protease” value [2] was “selectively cleaved by MMP-2 versus 9 and 14” and the “cleavage of ACPP substrate by protease (FAM/Cy5 ratiometric RACPP)” value [3] was “MMP9 selective substrates”.
In the case of MT2-MMP, the “cleavage of substrate by protease” value [4] is reported as “Only RS-Q-G-(homoF)-YLY (SEQ ID NO: 71) shows significant cleavage by MT2-MMP”.
With urokinase plasminogen activator (uPA) the “cleavage of ACPP substrate by protease” value [5] was “efficiently cleaved by uPA”.
